Drawing on the supplement of paper PMC10724198, this text covers protein stability index for 67 sequences.

The subject of this data set is Saccharomyces cerevisiae. The data set is described as follows: protein stability index of tFT-peptide fusion (C-terminal peptide) (PSI (0-1 scale)); higher = more stable (slower turnover). Particulars: temperature: 30 C. The method, then: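 MPS profiling in S. cerevisiae of the yeast C-terminome library: the last 12 aa of each annotated ORF are fused to the C-terminus of a sfGFP-mCherry timer, after a GGGS linker. Cells are FACS-sorted into 8 mCherry/sfGFP bins and deep-sequenced. PSI runs from 0 (unstable) to 1 (stable); wild type and das1Δ backgrounds, two technical replicates each.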

The mark [1] stands for this setting: genetic background: das1 deletion.

± gives the standard deviation of the averaged measurements.

In the case of RLAKKVARRNAD [RPS24A C-terminal 12 aa], the protein stability index by setting is: under setting [1], 0.693 ± 0.0097; (genetic background: wild type) 0.683 ± 0.024.
The corresponding values for RLGDVLHVCCPS [YHL049C C-terminal 12 aa] are 0.717 ± 0.03 and 0.7 ± 0.097.
In the same order, the values of “RLKSSVICSGTS [YLR399W-A C-terminal 12 aa]” are 0.68237 ± 6.9e-05 and 0.664 ± 0.015.
Sequence RMSNGLYTISMS [YPR050C C-terminal 12 aa] had a protein stability index under setting [1] of 0.694 ± 0.017 and a protein stability index (genetic background: wild type) of 0.6869 ± 0.0011.
In the same order, the values of RNLLSTYHPMLM [YLR124W C-terminal 12 aa] are 0.679 ± 0.0082 and 0.665 ± 0.0023.
The corresponding values for RNRLENISTMVI [YIA6 C-terminal 12 aa] are 0.71 ± 0.012 and 0.709 ± 0.019.
The corresponding values for RPWYVRQFHFWC [TAT2 C-terminal 12 aa] are 0.713 ± 0.0097 and 0.538 ± 0.011.
In the case of RQRRLQAAGRWF [PCP1 C-terminal 12 aa], the protein stability index is, setting by setting: under setting [1], 0.716 ± 0.014; (genetic background: wild type) 0.6854 ± 0.0044.
In the same order, the values of RRKITLIEDDEE [SAS3 C-terminal 12 aa] are 0.715 ± 0.011 and 0.672 ± 0.019.
As for RRLKNKQRTRFQ [YNR021W C-terminal 12 aa], the protein stability index came out at 0.7264 ± 0.0013 under setting [1] and 0.698 ± 0.023 (genetic background: wild type).
Turning to RRMKLKERKRTT [YBL029W C-terminal 12 aa], the protein stability index is 0.713 ± 0.022 under setting [1] and 0.655 ± 0.05 (genetic background: wild type).
The sequence RRNRGTPVKYTR [DOT1 C-terminal 12 aa] displayed a protein stability index under setting [1] of 0.6965 ± 0.0024 and a protein stability index (genetic background: wild type) of 0.7 ± 0.016.
In the same order, the values of RSHKCYPHDVRF [NAT3 C-terminal 12 aa] are 0.7614 ± 0.0011 and 0.662 ± 0.024.
RSVGKNSEKVST [QDR1 C-terminal 12 aa] came in with a protein stability index under setting [1] of 0.6986 ± 0.0019 and a protein stability index (genetic background: wild type) of 0.695 ± 0.01.
In the same order, the values of RTANVVGLDVPT [FMC1 C-terminal 12 aa] are 0.683 ± 0.017 and 0.6639 ± 0.0044.
For RTAYILMYQKRN [UBP3 C-terminal 12 aa], the protein stability index runs as follows: under setting [1], 0.782 ± 0.014; (genetic background: wild type) 0.1351 ± 0.00015.
Take RTLTTGNYHGLA [SYP1 C-terminal 12 aa]: the protein stability index stood at 0.6833 ± 0.0056 under setting [1] and 0.6781 ± 0.0046 (genetic background: wild type).
In the same order, the values of RVRRRLFAPEST [SLD3 C-terminal 12 aa] are 0.716 ± 0.018 and 0.802 ± 0.075.
In the same order, the values of RYRLSQRQESKK [MRX4 C-terminal 12 aa] are 0.698 ± 0.011 and 0.682 ± 0.021.
In the same order, the values of SAIENYRKAYGI [URA10 C-terminal 12 aa] are 0.664 ± 0.038 and 0.69935 ± 0.00068.
On to SALILMYKGFGL [UBP6 C-terminal 12 aa], for which the protein stability index was found to be 0.664 ± 0.022 under setting [1] and 0.683 ± 0.015 (genetic background: wild type).
The corresponding values for SALNKIKADEKK [ACO1 C-terminal 12 aa] are 0.689 ± 0.024 and 0.684 ± 0.024.
In the same order, the values of SDEEPSSKKRKV [VPS75 C-terminal 12 aa] are 0.703 ± 0.035 and 0.678 ± 0.01.
The corresponding values for SDQKGGRSVSTS [YLR001C C-terminal 12 aa] are 0.6896 ± 0.0021 and 0.734 ± 0.017.
As for SEGLQFLQREKK [MSE1 C-terminal 12 aa], the protein stability index reads like this: under setting [1], 0.711 ± 0.011; (genetic background: wild type) 0.681 ± 0.011.
On to SEVKGYSKLNIV [ASI3 C-terminal 12 aa], for which the protein stability index is, setting by setting: under setting [1], 0.695 ± 0.026; (genetic background: wild type) 0.668 ± 0.035.
In the same order, the values of SFFIYVNFTVYF [YCR001W C-terminal 12 aa] are 0.175 ± 0.036 and 0.178 ± 0.033.
In the same order, the values of SFHKEFFDQYRD [ALT1 C-terminal 12 aa] are 0.7326 ± 0.0045 and 0.774 ± 0.048.
SFVKIQDAIKKT [MRPL9 C-terminal 12 aa] registered a protein stability index under setting [1] of 0.7417 ± 0.0063 and a protein stability index (genetic background: wild type) of 0.627 ± 0.015.
In the same order, the values of SGETSDIIFRNY [ADK2 C-terminal 12 aa] are 0.74 ± 0.023 and 0.786 ± 0.012.
As to SGKRGVGKTDFR [NOG1 C-terminal 12 aa], the protein stability index by setting is: under setting [1], 0.716 ± 0.00084; (genetic background: wild type) 0.6901 ± 0.00098.
The corresponding values for SGPVEELVSPSK [IRC8 C-terminal 12 aa] are 0.7034 ± 0.0033 and 0.685 ± 0.032.
The corresponding values for SHEQKFENVQKE [STF2 C-terminal 12 aa] are 0.711 ± 0.017 and 0.705 ± 0.012.
The corresponding values for SISVLFDSLAAL [PRS1 C-terminal 12 aa] are 0.714 ± 0.0093 and 0.736 ± 0.022.
SKADSYRSVIRH [DLT1 C-terminal 12 aa] yielded a protein stability index under setting [1] of 0.667 ± 0.037 and a protein stability index (genetic background: wild type) of 0.675 ± 0.023.
Consider SKFGSIFKKVFG [YGR237C C-terminal 12 aa], for which the protein stability index is, setting by setting: under setting [1], 0.689 ± 0.017; (genetic background: wild type) 0.775 ± 0.077.
With SKKVICNTFGYN [DDI2 C-terminal 12 aa], the protein stability index runs as follows: under setting [1], 0.689 ± 0.027; (genetic background: wild type) 0.733 ± 0.1.
In the same order, the values of SKMLKNKIPLKN [YGL138C C-terminal 12 aa] are 0.667 ± 0.0083 and 0.685 ± 0.039.
The corresponding values for SKREFIESLRPK [SKG1 C-terminal 12 aa] are 0.707 ± 0.029 and 0.679 ± 0.03.
The sequence “SLCKNTIISSSV [YAL063C-A C-terminal 12 aa]” registered a protein stability index under setting [1] of 0.693 ± 0.023 and a protein stability index (genetic background: wild type) of 0.703 ± 0.035.
For SLDDFGVDVDME [PFA4 C-terminal 12 aa], the protein stability index by setting is: under setting [1], 0.711 ± 0.016; (genetic background: wild type) 0.683 ± 0.016.
In the same order, the values of SLDQEIQSLLSK [GPX2 C-terminal 12 aa] are 0.6903 ± 0.0018 and 0.654 ± 0.028.
In the same order, the values of SLFPRDPKRLRP [DPS1 C-terminal 12 aa] are 0.7133 ± 0.0054 and 0.6987 ± 0.0031.
In the case of SLIKQVGVKLDR [JHD2 C-terminal 12 aa], the protein stability index was determined as 0.671 ± 0.025 under setting [1] and 0.67 ± 0.013 (genetic background: wild type).
The corresponding values for SLPLVSLFIVLA [YJL064W C-terminal 12 aa] are 0.267 ± 0.019 and 0.268 ± 0.0062.
The corresponding values for SLYTLNYNVKNP [ATG17 C-terminal 12 aa] are 0.7157 ± 0.0035 and 0.6907 ± 0.00092.
In the same order, the values of “SMHAFLCKIYKR [YCR095W-A C-terminal 12 aa]” are 0.701 ± 0.02 and 0.6761 ± 0.0035.
For SMPLYKDVQKDA [RBK1 C-terminal 12 aa], the protein stability index came to 0.717 ± 0.027 under setting [1] and 0.665 ± 0.015 (genetic background: wild type).
The corresponding values for SMTTTNFSDFSL [UPC2 C-terminal 12 aa] are 0.6932 ± 0.0047 and 0.688 ± 0.036.
For SNDDFRKMFLGE [PRP24 C-terminal 12 aa], the protein stability index under setting [1] is 0.725 ± 0.011 and the protein stability index (genetic background: wild type) came out at 0.708 ± 0.01.
As to SNSNQHFGNVTF [IME2 C-terminal 12 aa], the protein stability index under setting [1] was determined as 0.713 ± 0.0014 and the protein stability index (genetic background: wild type) stood at 0.6829 ± 0.0059.
The corresponding values for SPAHSFEKIQKI [ERF2 C-terminal 12 aa] are 0.692 ± 0.015 and 0.688 ± 0.029.
In the same order, the values of SPYDWFRNTETP [DER1 C-terminal 12 aa] are 0.726 ± 0.035 and 0.737 ± 0.0089.
Regarding SQVLPESERRLD [ATG22 C-terminal 12 aa], the protein stability index is 0.675 ± 0.013 under setting [1] and 0.676 ± 0.03 (genetic background: wild type).
Turning to SRIQNASASGEI [TIM13 C-terminal 12 aa], the protein stability index by setting is: under setting [1], 0.685 ± 0.015; (genetic background: wild type) 0.715 ± 0.015.
The corresponding values for SRSNSHRTFFKR [FPK1 C-terminal 12 aa] are 0.737 ± 0.053 and 0.714 ± 0.043.
The corresponding values for SSLSFLSSFVDI [VAM10 C-terminal 12 aa] are 0.708 ± 0.025 and 0.702 ± 0.048.
In the same order, the values of SSSGTSSSHLEL [APL6 C-terminal 12 aa] are 0.702 ± 0.0062 and 0.672 ± 0.028.
In the case of SSSLSLESFMKS [SNM1 C-terminal 12 aa], the protein stability index runs as follows: under setting [1], 0.748 ± 0.036; (genetic background: wild type) 0.725 ± 0.019.
As for SSTVESTNINME [MRT4 C-terminal 12 aa], the protein stability index under setting [1] amounted to 0.6903 ± 0.0023 and the protein stability index (genetic background: wild type) was 0.721 ± 0.00096.
For SSVAFSKNLECV [YGR139W C-terminal 12 aa], the protein stability index came out at 0.7073 ± 0.0066 under setting [1] and 0.696 ± 0.038 (genetic background: wild type).
As to SSYFRIEGKKKK [CUE2 C-terminal 12 aa], the protein stability index reads like this: under setting [1], 0.68 ± 0.022; (genetic background: wild type) 0.683 ± 0.024.
In the same order, the values of STSDFELDDLED [YPL264C C-terminal 12 aa] are 0.6965 ± 0.0052 and 0.729 ± 0.026.
In the same order, the values of STTKQQSQEAVA [YHL026C C-terminal 12 aa] are 0.704 ± 0.027 and 0.689 ± 0.054.
The corresponding values for SVEEAFQLKSFD [LAA1 C-terminal 12 aa] are 0.713 ± 0.0014 and 0.715 ± 0.056.
The sequence “SVFCRNYPSFLL [YMR086C-A C-terminal 12 aa]” registered a protein stability index under setting [1] of 0.697 ± 0.011 and a protein stability index (genetic background: wild type) of 0.7 ± 0.035.
The corresponding values for SVLQRRQSTQNS [HAL1 C-terminal 12 aa] are 0.719 ± 0.0076 and 0.691 ± 0.06.
